Here are results for 29 sequences from the supplement of paper PMC9170038.

This series relates to MS2 coat protein. Description: apparent KD of MS2 coat protein; designed switch direction (-1 OFF switch, 1 ON switch): 1; higher = weaker reporter binding. A digest of the protocol:
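The reported apparent KD is a per-design median over clusters, from curve fits of normalised cluster fluorescence. Protein titrations used SNAP-549-labelled MS2 coat protein, doubled from 0.7 or 1.5 nM to 3 µM, in Tris-HCl pH 7.5 buffer with KCl, MgCl2, BSA, DTT, tRNA and Tween-20, with no input, 200 uM small-molecule ligand, or an oligonucleotide input. The RNA switches were transcribed on Illumina chips by stalled E. coli RNA polymerase.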

Setting [1] is: input ligand: microRNA oligo, concentration not stated.
[2] abbreviates: Eterna round: R95, input ligand: FMN 200 uM.
Setting [3] is: Eterna round: R95, input ligand: microRNA oligo, concentration not stated.
The mark [4] stands for this setting: Eterna round: R95, input ligand: none.

As for “AUUAUUUGUGCAGGAUAUGAUUAACAUGAGGAUCACCCAUGUGGUGUUGUGAGUAAGGAGAGUGAUCAGAAGGGCAUUUUUUUU [JMF's solution 61] (Eterna round: R96, puzzle: Same State NG 2)”, the “apparent KD of MS2 coat protein” value (input ligand: FMN 200 uM) came to 590 nM, the “apparent KD of MS2 coat protein” value under setting [1] turned out to be 476 nM and the “apparent KD of MS2 coat protein” value (input ligand: none) is 478 nM.
For “AGUCCAGCGAAAGCUGGACAAAAGCAUGUACAUGAGGAUCACCCAUGUUCAUGUACAAGUUUUUUGCUCGUUUUAAA [JL mod - D95 - 18] (puzzle: Sensor for hsa-mir-208a)”, the “apparent KD of MS2 coat protein” value under setting [2] was found to be 37.8 nM, the “apparent KD of MS2 coat protein” value under setting [3] stood at 10.3 nM and the “apparent KD of MS2 coat protein” value under setting [4] is 45.8 nM.
For the sequence “AUUAAACAUGAGGAUCACCCAUGUCAACAAAGUCGAGGAUAUGGGCAAAUAAAAUAAGUACCAGAAGGCGAAUAAU [salish99_ss1_r3_066] (Eterna round: R96, puzzle: Same State 1)”, the “apparent KD of MS2 coat protein” value reads like this: (input ligand: FMN 200 uM) 21.4 nM; under setting [1], 66.1 nM; (input ligand: none) 103 nM.
On the same counts, the results for “AAGAAACAUGAGGAUCACCCAUGUAGAAAUAUGGGAGGAUAUACGAAGACGAAAGUCAAAGUAGAAGGCCUAAAAG [Mat - Same State 1 - Eli mod - D107] (Eterna round: R96, puzzle: Same State 1)” are 23.4 nM, 54 nM and 110 nM.
For “GACAAUCUAUCUGAGGAUAUCAUGAGAAGAACAUGAGGAUCACCCAUGUGCAGGAAAACUGCAUAUGAGAAGGCAGAUAGAUUGA [Mat - Same State 2 - Mod - D16] (puzzle: Same State 2)”, the “apparent KD of MS2 coat protein” value runs as follows: under setting [2], 43.7 nM; under setting [3], 1600 nM; under setting [4], 1820 nM.
For “AGUCCAGCCUGAGCUGGACAAAAGCAUGUACAUGAGGAUCACCCAUGUCAUGUACAAGCUUUUUGCUCGUCUUGAAA [Zipper 46 - 9] (puzzle: Sensor for hsa-mir-208a)”, the “apparent KD of MS2 coat protein” value is, setting by setting: under setting [2], 737 nM; under setting [3], 16.8 nM; under setting [4], 807 nM.
“GUGGCCCAGGCACAGGAUAUGUUUCUCGUAACAUGAGGAUCACCCAUGUGCCUAUGAGAUUUUUUGCAGAAGGGUGCACGCCACG [JL Atiinbe mod 02] (puzzle: Same State 2)”: under setting [3], the “apparent KD of MS2 coat protein” value was 134 nM.
Consider “UCAACUUCUUUUAGUGUGUUGCCAGUUUUACAUGAGGAUCACCCAUGUUAAGUAUUGUGGUAUUUUGUUCGUCUUAA [JR_SHM208A_Sub073] (puzzle: Sensor for hsa-mir-208a)”, for which the “apparent KD of MS2 coat protein” value by setting is: under setting [2], 15.6 nM; under setting [3], 14.3 nM; under setting [4], 16.3 nM.
“UGGUACAUGGGAGGAUAUCAUGCAAACAUGAGGAUCACCCAUGUAACCAUGGAGACAUGGAUAUAUGAGAAGGCCCAUGUACCU [JL SSNG1 3.51] (Eterna round: R96, puzzle: Same State NG 2)”: the “apparent KD of MS2 coat protein” value worked out at 11 nM (input ligand: FMN 200 uM), 19.6 nM under setting [1] and 27.9 nM (input ligand: none).
With “AAAGUACAUGAGGAUCACCCAUGUAAAAGACUCACAGGAUAUGCUUCUUGUGUACAAGCUGCAGAAGGGUGAAAAG [Oraes] (puzzle: Same State 1)”, the “apparent KD of MS2 coat protein” value was determined as 30.8 nM under setting [2], 55.9 nM under setting [3] and 107 nM under setting [4].
In the case of “AUUAUUUAUGCAGGAUAUGAUUAACAUGAGGAUCACCCAUGUGGUGUUGUGAGUAAGGAGAGUGAUCAGAAGGGCAUUUUAUUU [JMF's solution 50] (Eterna round: R96, puzzle: Same State NG 2)”, the “apparent KD of MS2 coat protein” value (input ligand: FMN 200 uM) is 1560 nM, the “apparent KD of MS2 coat protein” value under setting [1] was 522 nM and the “apparent KD of MS2 coat protein” value (input ligand: none) turned out to be 571 nM.
Turning to “GUGGUGAAUUAAGGAUAUCGAGUCUAGAUGUUAAACAUGAGGAUCACCCAUGUGGGUUGCGGUGUCGAGAAGGUAAUUUACGGG [salish99_SSNG2_r04_508] (Eterna round: R96, puzzle: Same State NG 2)”, the “apparent KD of MS2 coat protein” value under setting [1] came to 52.6 nM.
As for “AAAAAACAUGAGGAUCACCCAUGUCAAAAGACAUGAGGAUAUGUACAGACUUCGGUCUGUACAGAAGGCAUGAAAA [salish99_ss1_r3_093] (Eterna round: R96, puzzle: Same State 1)”, the “apparent KD of MS2 coat protein” value under setting [1] came to 359 nM.
For “GGUGCUGUCACAGGAUAUCAUGCGGAAAUCGCGUGAGAAGGGUGGACUCUGUCAUUCACGGAGGACAUGAGGAUCACCCAUGUG [SS NG10LRO20] (Eterna round: R96, puzzle: Same State NG 1)”, the “apparent KD of MS2 coat protein” value amounted to 68.5 nM (input ligand: FMN 200 uM), 5.67 nM under setting [1] and 20.2 nM (input ligand: none).
As to “AUUGCUUACGCAGGAUAUGAUGCGAAAAUUGCGUCAGAAGGGUGAAGUGACUCAUUGCAACAGGACAUGAGGAUCACCCAUGUC [SameState NG1 #90] (Eterna round: R96, puzzle: Same State NG 1)”, the “apparent KD of MS2 coat protein” value is, setting by setting: (input ligand: FMN 200 uM) 184 nM; under setting [1], 305 nM; (input ligand: none) 708 nM.
The corresponding values for “UGGAUCUAGGCUUGCCUGGGUCCAUGCUGACAUGAGGAUCACCCAUGUGCAUCCUACAAGCUUUUUGCUUGUCUGUC (Eterna round: R96, puzzle: Sensor for hsa-mir-208a)” are 384 nM, 607 nM and 530 nM.
Regarding “ACAUGAGGAUCACCCAUGUAUUUAUUUGAAUCUUAAGUUACGUAGGAUAUCGUGUAUACUAUCAUCGAGAAGGACGAUGUGAUA [JR_SSNG3_Sub068] (Eterna round: R96, puzzle: Same State NG 3)”, under setting [1], the “apparent KD of MS2 coat protein” value was 12.5 nM.
Consider “GUAGCAUACCGAGGAUAUUCAUAUAAUAAAUAACAUGAGGAUCACCCAUGUAGGCGAAAGCCUUGGGAGAAGGCGGAAUGCUAC [Xeonanis - 20 Mod57] (Eterna round: R96, puzzle: Same State NG 2)”, for which the “apparent KD of MS2 coat protein” value reads like this: (input ligand: FMN 200 uM) 13.5 nM; under setting [1], 108 nM; (input ligand: none) 112 nM.
Turning to “AUUAAACAUGAGGAUCACCCAUGUCAACAAAGUCGAGGAUAUGGGCAAAUAAAAUUAGAACCAGAAGGCGAAUAAU [salish99_ss1_r3_063] (puzzle: Same State 1)”, the “apparent KD of MS2 coat protein” value was found to be 29.2 nM under setting [2], 167 nM under setting [3] and 229 nM under setting [4].
As to “AACAAUCUAUCUGAGGAUAUCAUGAAAUAAACAUGAGGAUCACCCAUGUGCAGGAAUACUGCAUAUGAGAAGGCAGAUAGAUUGA [salish99_ss2_r3_042] (puzzle: Same State 2)”, the “apparent KD of MS2 coat protein” value reads like this: under setting [2], 86 nM; under setting [3], 1040 nM; under setting [4], 4050 nM.
For “GAGUAGUUGGGAGGAUAUGCAUUGUUAUAGAAUGCAGAAGGUUUUAACAUGAGGAUCACCCAUGUAGGACUAUUCCUGUGUAUC [Parity 71 - Jieux - Same State NG 1] (Eterna round: R96, puzzle: Same State NG 1)”, the “apparent KD of MS2 coat protein” value (input ligand: FMN 200 uM) came to 12.9 nM, the “apparent KD of MS2 coat protein” value under setting [1] worked out at 11.9 nM and the “apparent KD of MS2 coat protein” value (input ligand: none) is 15.6 nM.
“GCGAGCGUACUUGCAGACAUGAGGAUCACCCAUGUAACUGGACAGGAUAUGGUACCGUUUCGGUACCAGAAGGGUCCAUAUGUC [JL SSNG3 3.54] (Eterna round: R96, puzzle: Same State NG 3)”: the “apparent KD of MS2 coat protein” value by setting is: (input ligand: FMN 200 uM) 64.4 nM; under setting [1], 115 nM; (input ligand: none) 130 nM.
As for “GAGAAUCUAUCUCAGGAUAUCAUGUCAAAGACAUGAGGAUCACCCAUGUACCAGGAAACUGGUUAUGAGAAGGGAGAUAGAUUCA [Mat - Same State 2 - Mod - D35] (puzzle: Same State 2)”, the “apparent KD of MS2 coat protein” value runs as follows: under setting [2], 103 nM; under setting [3], 26.2 nM; under setting [4], 224 nM.
For the sequence “GCGGAGAGGUAAGGAUAUCCAUGGCAUAGACAUGAGGAUCACCCAUGUAGGAGACGAAUUAGAAGGGAGAAGGUACCGGGACGC [AK SSNG2-V2-19] (Eterna round: R96, puzzle: Same State NG 2)”, the “apparent KD of MS2 coat protein” value by setting is: (input ligand: FMN 200 uM) 175 nM; under setting [1], 111 nM; (input ligand: none) 168 nM.
Regarding “AUGCCAAAAGGAGGAUAUGGAGCCUUAUUGGCUCCAGAAGGCUUGACAUGAGGAUCACCCAUGUGGCAGUGGUCUAAUGACCAC [Eli NG1ss - 43] (Eterna round: R96, puzzle: Same State NG 1)”, the “apparent KD of MS2 coat protein” value under setting [1] was found to be 13.7 nM.
Take “AGUCCAGCCUGAGCUGGACAAAAGCAUGUACAUGAGGAUCACCCAUGUUAUGUACAAGCUUUUUGCUCGUCUUAAAA [Zipper 46 - 15] (puzzle: Sensor for hsa-mir-208a)”: the “apparent KD of MS2 coat protein” value was 165 nM under setting [2], 13 nM under setting [3] and 153 nM under setting [4].
Take “GAAAGCAACGGAGGAUAUUCGCGUACGUUGGACGAAGAAGGCCGACAUGAGGAUCACCCAUGUACGAAUCACGCCAUAGCAUUA [Eternabot solution 12] (Eterna round: R96, puzzle: Same State NG 1)”: the “apparent KD of MS2 coat protein” value runs as follows: (input ligand: FMN 200 uM) 23.9 nM; under setting [1], 16.4 nM; (input ligand: none) 19.7 nM.
Consider “AGCUAUUACGAAGGAUAUUCUGACAUGAGGAUCACCCAUGUCUUCAUGAUUUAUUGUGAUCACAUGAAGAAGGUCGUACUAACA [SameState NG2 #24] (Eterna round: R96, puzzle: Same State NG 2)”, for which the “apparent KD of MS2 coat protein” value under setting [1] was 140 nM.
For “GGUAUCUCCAGUGAGGAUAUGCGGCGUAGAACAUGAGGAUCACCCAUGUCCUUCGAAUGGGUUACGCAGAAGGCACUACGGUACC [Robot Arm] (puzzle: Same State 2)”, the “apparent KD of MS2 coat protein” value under setting [3] came out at 30.1 nM.
